In patent publication US20210221894A1 (DRAGONFLY THERAPEUTICS, published 2021):

Target: T1, recombinant His-tagged EGF3-6 domains of human DLL3 (human, UniProt Q9NYJ7 312-492, limits assumed)
T1 sequence: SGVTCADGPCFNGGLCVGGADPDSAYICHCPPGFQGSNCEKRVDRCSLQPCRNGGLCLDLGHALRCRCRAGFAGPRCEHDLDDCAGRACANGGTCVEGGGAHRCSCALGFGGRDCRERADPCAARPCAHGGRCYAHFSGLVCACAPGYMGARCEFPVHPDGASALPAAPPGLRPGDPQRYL
Assay: SPR (Biacore 8K), 37 C, antibody captured on anti-mouse Fc, DLL3 domain construct injected, 1:1 fit
From the text: The binding kinetics of different anti-DLL3 antibodies to recombinant proteins of different domains of human DLL3 were studied by surface plasmon resonance (SPR) using a Biacore™ 8K instrument. These anti-DLL3 antibodies were produced from mouse hybridomas, and each included a heavy chain variable region and light chain variable region described herein. Briefly, antibodies recognizing human IgG Fc and antibodies recognizing mouse IgG Fc were immobilized on different channels of a Biacore™ 8K chip to allow simultaneous analysis of human and murine anti-DLL3 antibodies. Murine anti-DLL3 antibodies were captured on the anti-mouse Fc channel of the Biacore chip. The human anti-DLL3 antibody from Stemcentrx (San Francisco, Calif.) was used as a control and was captured onto anti-human Fc channel of the Biacore™ chip. Different concentrations of DLL3 ECD, DLL3 N-terminal domain, EGF2-6, EGF3-6, EGF4-6, or EGF5-6 domains of DLL3 were injected. Experiments were performed at 37° C. Biacore™ 8K evaluation software was used for all data analysis. To obtain kinetic rate constants double-referenced data were fit to a 1:1 interaction model using Biacore™ 8K Evaluation software (GE Healthcare, Marlborough, Mass.). The equilibrium binding constant KD was determined by the ratio of binding rate constants kd/kₐ.
The binding epitope on DLL3 by the anti-DLL3 antibody which included a heavy chain variable region and light chain variable region of clone 5E7 (see Table 2) was identified by SPR analysis at 37° C.

B1: murine anti-DLL3 antibody clone 5E7 (antibody, V domains shown)
VH: EVQLQQSGAELVRPGASVKLSCTASGFNIKDDYIHWVKQWPEQGLEWIGWIDSENGDTEYASKFQGKATMTADTSSNTAYLQLSGLTSEDTAVYYCTTSSYYSYDLFVYWGQGTLVTVSA
VL: DVLMTQTPLTLSVPIGQPASISCKSSQSLLHSNGKTYLNWLLQRPGQSPKLLIYLVSKLESGVPDRFSGSGSGTDFTLKISRVEAEDLGVYYCLQTTHLYTFGGGTKLEIK
notes: Murine antibody produced from a mouse hybridoma, captured on anti-mouse Fc in SPR; also called m5E7; murine 5E7
B1 gave a Kd of 0.184 nM, a koff of 0.000264 s⁻¹ and a kon of 1.45e+06 M⁻¹ s⁻¹.
